According to patent publication US6476188:

Key:
[1] = biological target: PERIOD (PER) protein, Drosophila, expressed in S2 cells from hs-per, P07663
[2] = biological target: phosvitin (Sigma #P-1253)
[3] = biological target: mouse PERIOD2 (mPER2), in vitro translated, 35S-methionine-labeled, O54943
[4] = biological target: mouse PERIOD1 (mPER1), in vitro translated, 35S-methionine-labeled, O35973
[5] = biological target: dephosphorylated α-casein (Sigma #C-8032)

Chain of mouse PERIOD2 (mPER2), in vitro translated, 35S-methionine-labeled, O54943 (O54943 whole entry, looked up): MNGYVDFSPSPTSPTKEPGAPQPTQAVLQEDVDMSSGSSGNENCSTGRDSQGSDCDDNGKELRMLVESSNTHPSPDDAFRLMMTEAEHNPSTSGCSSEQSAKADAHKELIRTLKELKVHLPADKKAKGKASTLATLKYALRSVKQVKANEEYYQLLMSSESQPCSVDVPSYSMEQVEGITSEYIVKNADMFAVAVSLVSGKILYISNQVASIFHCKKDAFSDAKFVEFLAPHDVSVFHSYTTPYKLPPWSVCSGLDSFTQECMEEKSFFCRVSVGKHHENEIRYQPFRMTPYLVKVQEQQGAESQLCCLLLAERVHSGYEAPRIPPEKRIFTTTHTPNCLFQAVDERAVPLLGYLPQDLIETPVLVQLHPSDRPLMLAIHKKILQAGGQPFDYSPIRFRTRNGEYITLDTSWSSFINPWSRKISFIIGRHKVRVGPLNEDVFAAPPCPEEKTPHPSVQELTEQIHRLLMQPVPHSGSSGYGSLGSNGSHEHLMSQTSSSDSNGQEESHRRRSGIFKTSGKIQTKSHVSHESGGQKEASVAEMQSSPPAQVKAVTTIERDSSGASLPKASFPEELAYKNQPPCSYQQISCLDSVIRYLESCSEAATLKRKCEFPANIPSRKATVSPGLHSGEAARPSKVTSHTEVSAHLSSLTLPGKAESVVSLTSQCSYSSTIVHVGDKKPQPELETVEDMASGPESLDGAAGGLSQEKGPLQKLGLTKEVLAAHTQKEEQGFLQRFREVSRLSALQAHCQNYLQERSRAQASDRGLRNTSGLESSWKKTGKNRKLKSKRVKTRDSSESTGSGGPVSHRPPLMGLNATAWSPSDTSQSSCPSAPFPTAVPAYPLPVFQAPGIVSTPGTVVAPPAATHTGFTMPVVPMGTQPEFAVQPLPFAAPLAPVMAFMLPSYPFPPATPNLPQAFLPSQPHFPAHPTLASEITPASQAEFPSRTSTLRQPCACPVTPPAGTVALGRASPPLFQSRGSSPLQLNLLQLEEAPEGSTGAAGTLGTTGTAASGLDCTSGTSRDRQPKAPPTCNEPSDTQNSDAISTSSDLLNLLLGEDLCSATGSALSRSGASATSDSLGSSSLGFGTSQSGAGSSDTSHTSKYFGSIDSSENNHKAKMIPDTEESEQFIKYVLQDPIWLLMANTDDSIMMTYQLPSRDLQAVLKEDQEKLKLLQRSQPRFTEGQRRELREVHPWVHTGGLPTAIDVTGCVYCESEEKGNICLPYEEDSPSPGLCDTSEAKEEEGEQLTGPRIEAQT
Chain of mouse PERIOD1 (mPER1), in vitro translated, 35S-methionine-labeled, O35973 (O35973 whole entry, looked up): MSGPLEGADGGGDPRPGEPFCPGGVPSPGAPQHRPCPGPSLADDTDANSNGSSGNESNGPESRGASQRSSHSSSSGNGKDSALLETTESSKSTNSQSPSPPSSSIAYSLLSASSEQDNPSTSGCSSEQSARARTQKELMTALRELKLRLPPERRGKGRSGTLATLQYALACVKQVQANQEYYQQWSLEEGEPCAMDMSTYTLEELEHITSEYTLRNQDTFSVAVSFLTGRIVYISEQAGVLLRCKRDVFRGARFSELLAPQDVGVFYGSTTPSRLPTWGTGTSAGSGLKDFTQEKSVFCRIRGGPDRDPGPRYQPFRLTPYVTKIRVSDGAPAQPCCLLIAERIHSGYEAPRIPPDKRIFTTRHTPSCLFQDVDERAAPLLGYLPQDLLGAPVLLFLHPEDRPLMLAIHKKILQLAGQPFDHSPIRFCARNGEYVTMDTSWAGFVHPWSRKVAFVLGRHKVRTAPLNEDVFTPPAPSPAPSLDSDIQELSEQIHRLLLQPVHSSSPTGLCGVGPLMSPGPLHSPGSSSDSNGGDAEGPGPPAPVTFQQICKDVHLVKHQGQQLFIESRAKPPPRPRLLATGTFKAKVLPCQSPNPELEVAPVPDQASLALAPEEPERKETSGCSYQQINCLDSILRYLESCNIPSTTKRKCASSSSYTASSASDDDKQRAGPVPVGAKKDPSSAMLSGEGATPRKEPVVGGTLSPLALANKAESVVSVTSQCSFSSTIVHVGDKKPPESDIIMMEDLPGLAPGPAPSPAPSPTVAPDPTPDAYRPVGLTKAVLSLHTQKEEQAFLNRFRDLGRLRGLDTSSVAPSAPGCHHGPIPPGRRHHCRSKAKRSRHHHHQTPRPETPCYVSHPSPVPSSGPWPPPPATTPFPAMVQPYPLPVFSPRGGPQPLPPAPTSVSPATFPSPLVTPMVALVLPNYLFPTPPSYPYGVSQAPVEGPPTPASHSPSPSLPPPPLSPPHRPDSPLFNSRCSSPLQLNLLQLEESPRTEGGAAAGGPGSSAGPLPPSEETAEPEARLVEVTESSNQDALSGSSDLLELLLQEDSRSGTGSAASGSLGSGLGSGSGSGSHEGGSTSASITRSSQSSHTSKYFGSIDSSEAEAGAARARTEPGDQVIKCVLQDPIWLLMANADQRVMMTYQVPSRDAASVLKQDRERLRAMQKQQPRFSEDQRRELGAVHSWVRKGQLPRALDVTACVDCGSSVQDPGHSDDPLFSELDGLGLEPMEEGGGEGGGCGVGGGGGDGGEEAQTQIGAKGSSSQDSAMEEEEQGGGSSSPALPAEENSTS

| Protein | phosphorylation of PER in vitro [1] | Km [2] | Vmax [2] | fold reduction in Vmax against wild-type [2] | affinity kinase assay, phosphorylation of bound substrate [3] | affinity kinase assay, phosphorylation of bound substrate [4] | 32P signal intensity of phosphorylated substrate, wild-type relative to tau enzyme [5] | 32P signal intensity of phosphorylated substrate, wild-type relative to tau enzyme [2] |
| --- | --- | --- | --- | --- | --- | --- | --- | --- |
| DOUBLETIME protein (DBT), Drosophila, in vitro translated from dbt cDNA P12, 35S-labeled (protein) MELRVGNKYRLGRKIGSGSFGDIYLGTTINTGEEVAIKLECIRTKHPQLHIESKFYKTMQGGIGIPRIIWCGSEGDYNVMVMELLGPSLEDLFNFCSRRFSLKTVLLLADQMISRIDYIHSRDFIHRDIKPDNFLMGLGKKGNLVYIIDFGLAKKFRDARSLKHIPYRENKNLTGTARYASINTHLGIEQSRRDDLESLGYVLMYFNLGALPWQGLKAANKRQKYERISEKKLSTSIVVLCKGFPSEFVNYLNFCRQMHFDQRPDYCHLRKLFRNLFHRLGFTYDYVFDWNLLKFGGPRNPQAIQQAQDGADGQAGHDAVAAAAAVAAAAAASSHQQQQHKVNAALGGGGGSRAQQQLQGGQTLAMLGGNGGGNGSQLIGGNGLNMDDSMAATNSSRPPYDTPERRPSIRMRQGGGGGGGGVGVGGMQSGGGGGGVGNAK | the formation of a PER/DBT complex leads to DBT-dependent phosphorylation of PER in vitro | – | – | – | – | – | – | – |
| recombinant tau mutant hamster CK1ε (Arg178Cys) with N-terminal S•Tag and His-Tag fusions, captured on S-protein agarose (protein) MELRVGNKYRLGRKIGSGSFGDIYLGANIASGEEVAIKLECVKTKHPQLHIESKFYKMMQGGVGIPSIKWCGAEGDYNVMVMELLGPSLEDLFNFCSRKFSLKTVLLLADQMISRIEYIHSKNFIHRDVKPDNFLMGLGKKGNLVYIIDFGLAKKYRDARTHQHIPYRENKNLTGTACYASINTHLGIEQSRRDDLESLGYVLMYFNLGSLPWQGLKAATKRQKYERISEKKMSTPIEVLCKGYPSEFSTYLNFCRSLRFDDKPDYSYLRQLFRNLFHRQGFSYDYVFDWNMLKFGAARNPEDVDRERREHEREERMGQLRGSATRALPPGPPTGATANRLRSAAEPVASTPASRIQQAGNTSPRAISRADRERKVSMRLHRGAPANVSSSDLTGRQEVSRISASQTSVPFDHLGK | – | a Km of 29.8 µM | a Vmax of 52.5 µmoles/µg/5 minutes | the tau mutation causes an eight-fold reduction in the Vmax of CK1ε | there is a clear attenuation in phosphorylation of mPER1 and mPER2 by the tau mutant enzyme as compared to wild type CK1ε | there is a clear attenuation in phosphorylation of mPER1 and mPER2 by the tau mutant enzyme as compared to wild type CK1ε | – | – |
| recombinant wild-type hamster CK1ε with N-terminal S•Tag and His-Tag fusions, captured on S-protein agarose (protein) MELRVGNKYRLGRKIGSGSFGDIYLGANIASGEEVAIKLECVKTKHPQLHIESKFYKMMQGGVGIPSIKWCGAEGDYNVMVMELLGPSLEDLFNFCSRKFSLKTVLLLADQMISRIEYIHSKNFIHRDVKPDNFLMGLGKKGNLVYIIDFGLAKKYRDARTHQHIPYRENKNLTGTARYASINTHLGIEQSRRDDLESLGYVLMYFNLGSLPWQGLKAATKRQKYERISEKKMSTPIEVLCKGYPSEFSTYLNFCRSLRFDDKPDYSYLRQLFRNLFHRQGFSYDYVFDWNMLKFGAARNPEDVDRERREHEREERMGQLRGSATRALPPGPPTGATANRLRSAAEPVASTPASRIQQAGNTSPRAISRADRERKVSMRLHRGAPANVSSSDLTGRQEVSRISASQTSVPFDHLGK | – | the Km is 55.6 µM | the Vmax is 400 µmoles/µg/5 minutes | – | this affinity kinase assay demonstrates that CK1ε phosphorylates mammalian PERIOD proteins | this affinity kinase assay demonstrates that CK1ε phosphorylates mammalian PERIOD proteins | The wild-type CK1ε kinase produces an 8-fold and 4-fold greater signal intensity, for phosvitin and α-casein respectively, relative to that produced by the tau enzyme. | The wild-type CK1ε kinase produces an 8-fold and 4-fold greater signal intensity, for phosvitin and α-casein respectively, relative to that produced by the tau enzyme. |
